Reference: paper PMC6191937 (Cell, 2018)

Target: T1, EGFP-MOV10 (human, UniProt Q9HCE1 1-1003)
T1 sequence: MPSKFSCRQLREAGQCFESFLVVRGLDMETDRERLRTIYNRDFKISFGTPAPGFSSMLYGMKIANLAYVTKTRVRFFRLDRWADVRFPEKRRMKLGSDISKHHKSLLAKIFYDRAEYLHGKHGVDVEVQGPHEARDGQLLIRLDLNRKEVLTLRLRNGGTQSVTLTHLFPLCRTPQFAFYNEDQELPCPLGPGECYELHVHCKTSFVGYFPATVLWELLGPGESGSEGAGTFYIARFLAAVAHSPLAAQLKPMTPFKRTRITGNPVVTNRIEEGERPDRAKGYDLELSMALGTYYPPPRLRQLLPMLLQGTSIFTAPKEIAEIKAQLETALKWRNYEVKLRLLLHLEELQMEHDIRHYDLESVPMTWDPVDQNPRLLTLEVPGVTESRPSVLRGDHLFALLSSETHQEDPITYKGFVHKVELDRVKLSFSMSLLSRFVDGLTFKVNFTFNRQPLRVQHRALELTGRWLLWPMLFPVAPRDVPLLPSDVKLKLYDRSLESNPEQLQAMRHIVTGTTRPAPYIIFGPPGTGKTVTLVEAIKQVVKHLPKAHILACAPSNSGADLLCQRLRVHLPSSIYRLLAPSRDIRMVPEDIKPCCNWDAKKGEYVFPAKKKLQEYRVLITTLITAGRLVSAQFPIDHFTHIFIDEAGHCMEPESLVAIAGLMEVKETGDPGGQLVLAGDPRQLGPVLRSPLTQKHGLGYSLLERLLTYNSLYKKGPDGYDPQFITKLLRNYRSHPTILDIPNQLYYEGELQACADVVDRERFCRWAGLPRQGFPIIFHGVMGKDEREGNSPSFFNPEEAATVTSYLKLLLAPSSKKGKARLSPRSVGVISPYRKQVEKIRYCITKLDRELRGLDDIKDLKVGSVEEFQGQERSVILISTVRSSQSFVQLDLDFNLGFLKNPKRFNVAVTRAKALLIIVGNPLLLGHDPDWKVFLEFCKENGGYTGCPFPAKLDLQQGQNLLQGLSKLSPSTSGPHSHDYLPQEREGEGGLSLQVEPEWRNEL
Assay: co-IP

fold enrichment in the co-IP relative to TUT7: ~10 fold
B1: TUT4 (natural protein)
chain: MEESKTLKSENHEPKKNVICEESKAVQVIGNQTLKARNDKSVKEIENSSPNRNSSKKNKQNDICIEKTEVKSCKVNAANLPGPKDLGLVLRDQSHCKAKKFPNSPVKAEKATISQAKSEKATSLQAKAEKSPKSPNSVKAEKASSYQMKSEKVPSSPAEAEKGPSLLLKDMRQKTELQQIGKKIPSSFTSVDKVNIEAVGGEKCALQNSPRSQKQQTCTDNTGDSDDSASGIEDVSDDLSKMKNDESNKENSSEMDYLENATVIDESALTPEQRLGLKQAEERLERDHIFRLEKRSPEYTNCRYLCKLCLIHIENIQGAHKHIKEKRHKKNILEKQEESELRSLPPPSPAHLAALSVAVIELAKEHGITDDDLRVRQEIVEEMSKVITTFLPECSLRLYGSSLTRFALKSSDVNIDIKFPPKMNHPDLLIKVLGILKKNVLYVDVESDFHAKVPVVVCRDRKSGLLCRVSAGNDMACLTTDLLTALGKIEPVFIPLVLAFRYWAKLCYIDSQTDGGIPSYCFALMVMFFLQQRKPPLLPCLLGSWIEGFDPKRMDDFQLKGIVEEKFVKWECNSSSATEKNSIAEENKAKADQPKDDTKKTETDNQSNAMKEKHGKSPLALETPNRVSLGQLWLELLKFYTLDFALEEYVICVRIQDILTRENKNWPKRRIAIEDPFSVKRNVARSLNSQLVYEYVVERFRAAYRYFACPQTKGGNKSTVDFKKREKGKISNKKPVKSNNMATNGCILLGETTEKINAEREQPVQCDEMDCTSQRCIIDNNNLLVNELDFADHGQDSSSLSTSKSSEIEPKLDKKQDDLAPSETCLKKELSQCNCIDLSKSPDPDKSTGTDCRSNLETESSHQSVCTDTSATSCNCKATEDASDLNDDDNLPTQELYYVFDKFILTSGKPPTIVCSICKKDGHSKNDCPEDFRKIDLKPLPPMTNRFREILDLVCKRCFDELSPPCSEQHNREQILIGLEKFIQKEYDEKARLCLFGSSKNGFGFRDSDLDICMTLEGHENAEKLNCKEIIENLAKILKRHPGLRNILPITTAKVPIVKFEHRRSGLEGDISLYNTLAQHNTRMLATYAAIDPRVQYLGYTMKVFAKRCDIGDASRGSLSSYAYILMVLYFLQQRKPPVIPVLQEIFDGKQIPQRMVDGWNAFFFDKTEELKKRLPSLGKNTESLGELWLGLLRFYTEEFDFKEYVISIRQKKLLTTFEKQWTSKCIAIEDPFDLNHNLGAGVSRKMTNFIMKAFINGRKLFGTPFYPLIGREAEYFFDSRVLTDGELAPNDRCCRVCGKIGHYMKDCPKRKSLLFRLKKKDSEEEKEGNEEEKDSRDVLDPRDLHDTRDFRDPRDLRCFICGDAGHVRRECPEVKLARQRNSSVAAAQLVRNLVNAQQVAGSAQQQGDQSIRTRQSSECSESPSYSPQPQPFPQNSSQSAAITQPSSQPGSQPKLGPPQQGAQPPHQVQMPLYNFPQSPPAQYSPMHNMGLLPMHPLQIPAPSWPIHGPVIHSAPGSAPSNIGLNDPSIIFAQPAARPVAIPNTSHDGHWPRTVAPNSLVNSGAVGNSEPGFRGLTPPIPWEHAPRPHFPLVPASWPYGLHQNFMHQGNARFQPNKPFYTQDRCATRRCRERCPHPPRGNVSE
